{"source": "paper PMC5062617", "about": "“Nop9 is a PUF-like protein that prevents premature cleavage to correctly process pre-18S rRNA”", "assay_in_all_cases": "EMSA; EMSA: 10 mM HEPES, 150 mM NaCl, 0.01% Tween-20, 0.1 mg/ml BSA, 1 mM TCEP, 4 °C, 40 min; RNA <50 pM", "key": {"[1]": {"biological_target": "T1, Nop9 (46-645) (Saccharomyces cerevisiae, UniProt P47077 46-645)", "T1 sequence": "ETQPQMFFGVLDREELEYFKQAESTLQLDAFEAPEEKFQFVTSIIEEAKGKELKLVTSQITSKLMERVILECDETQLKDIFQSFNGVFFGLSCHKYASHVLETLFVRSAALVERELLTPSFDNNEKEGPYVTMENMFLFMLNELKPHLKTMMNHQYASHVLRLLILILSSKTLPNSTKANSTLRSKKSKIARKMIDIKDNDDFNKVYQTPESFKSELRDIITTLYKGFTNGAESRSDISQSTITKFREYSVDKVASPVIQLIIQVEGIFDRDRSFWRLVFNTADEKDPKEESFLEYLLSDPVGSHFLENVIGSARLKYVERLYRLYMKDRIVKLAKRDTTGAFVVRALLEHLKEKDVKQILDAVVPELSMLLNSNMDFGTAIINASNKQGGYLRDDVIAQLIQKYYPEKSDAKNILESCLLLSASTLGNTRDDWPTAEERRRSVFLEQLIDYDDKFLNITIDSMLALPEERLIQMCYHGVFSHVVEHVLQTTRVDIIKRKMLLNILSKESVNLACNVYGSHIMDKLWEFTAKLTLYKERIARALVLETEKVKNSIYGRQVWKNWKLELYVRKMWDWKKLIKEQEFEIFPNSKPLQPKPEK", "conditions": "protein: recombinant, tags: none (SUMO cleaved), hairpin"}, "[2]": {"biological_target": "T2, Nop9 full-length (Saccharomyces cerevisiae, UniProt P47077 1-666)", "T2 sequence": "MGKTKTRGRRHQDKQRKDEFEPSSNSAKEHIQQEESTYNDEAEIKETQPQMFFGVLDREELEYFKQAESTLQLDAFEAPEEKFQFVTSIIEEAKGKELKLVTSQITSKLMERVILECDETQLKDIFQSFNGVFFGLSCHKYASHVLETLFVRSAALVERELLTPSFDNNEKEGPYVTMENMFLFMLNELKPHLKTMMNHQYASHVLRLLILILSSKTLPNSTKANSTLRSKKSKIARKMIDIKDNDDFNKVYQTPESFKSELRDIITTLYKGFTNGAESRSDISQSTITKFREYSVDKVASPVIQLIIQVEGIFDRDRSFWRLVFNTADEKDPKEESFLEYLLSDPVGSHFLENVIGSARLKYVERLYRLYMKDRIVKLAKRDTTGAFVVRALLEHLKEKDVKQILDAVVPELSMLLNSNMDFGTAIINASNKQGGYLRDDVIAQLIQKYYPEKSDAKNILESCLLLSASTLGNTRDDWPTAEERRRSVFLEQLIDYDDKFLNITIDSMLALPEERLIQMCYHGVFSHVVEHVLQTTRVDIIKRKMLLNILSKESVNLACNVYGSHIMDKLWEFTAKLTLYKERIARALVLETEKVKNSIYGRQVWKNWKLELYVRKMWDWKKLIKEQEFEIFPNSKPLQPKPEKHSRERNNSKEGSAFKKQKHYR", "conditions": "protein: recombinant; tags: none (SUMO cleaved); label: 5' 32P; hairpin, 5' flank"}, "[3]": {"biological_target": "T1, Nop9 (46-645)", "conditions": "protein: recombinant; tags: none (SUMO cleaved); label: 5' 32P; hairpin, 5' flank"}, "[4]": {"biological_target": "T1, Nop9 (46-645)", "conditions": "protein: recombinant; tags: none (SUMO cleaved); label: 5' 32P; hairpin, 5' flank", "remark": "listed apart in the source"}}}
{"binder": "Subdomain A Δ5'1-6, Δ3' (structured_RNA) RNA: GGUUUAAUAAUUUUGAAAAUGGAUUUUUUUGUUUUAUAGGACAAUUAAAACCGUUUCAA", "values": [{"measurement": "Kd", "setting": "[1]; label: 5' 32P, 5' flank", "value": "11.8 ± 0.4", "unit": "nM"}, {"measurement": "Kd", "setting": "[2]", "value": "10.1 ± 1", "unit": "nM"}]}
{"binder": "II: U16G (structured_RNA) RNA: GGUUUAAUAAUGUUGAAAAUGGAUUUUUUUGUUUUAUAGGACAAUUAAAACCGUUUCAA", "values": [{"measurement": "Kd", "setting": "[1]; label: 5' 32P, 5' flank", "value": "47.7 ± 1.8", "unit": "nM"}]}
{"binder": "AAU(10-12)CCC, A Δ5'1-6, Δ3' (structured_RNA) RNA: GGUUUCCCAAUUUUGAAAAUGGAUUUUUUUGUUUUAUAGGACAAUUAAAACCGUUUCAA", "values": [{"measurement": "Kd", "setting": "[1]; label: 5' 32P, 5' flank", "value": "8.5 ± 0.6", "unit": "nM"}]}
{"binder": "IV: stem base strands reversed (UUG17-19AAC, CAA204-206GUU) (structured_RNA) RNA: GGUUUAAUAAUUAACAAAAUGGAUUUUUUUGUUUUAUAGGACAAUUAAAACCGUUUGUU", "values": [{"measurement": "binding result", "setting": "[1]; label: 5' 32P, 5' flank", "value": "binds"}]}
{"binder": "U16A (structured_RNA) RNA: GGUUUAAUAAUAUUGAAAAUGGAUUUUUUUGUUUUAUAGGACAAUUAAAACCGUUUCAA", "values": [{"measurement": "Kd", "setting": "[1]; label: 5' 32P, 5' flank", "value": "62.3 ± 4.9", "unit": "nM"}]}
{"binder": "UUU(7-9)GGG, A Δ5'1-6, Δ3' (structured_RNA) RNA: GGGGGAAUAAUUUUGAAAAUGGAUUUUUUUGUUUUAUAGGACAAUUAAAACCGUUUCAA", "values": [{"measurement": "Kd", "setting": "[1]; label: 5' 32P, 5' flank", "value": "6.6 ± 0.3", "unit": "nM"}]}
{"binder": "nt 20-22 mutant, pairing kept (structured_RNA) RNA: GGUUUAAUAAUUUUGCCCAUGGAUUUUUUUGUUUUAUAGGACAAUUAAAACCGGGGCAA", "values": [{"measurement": "binding result", "setting": "[1]; label: 5' 32P, 5' flank", "value": "binds"}]}
{"binder": "AAU(13-15)CCC, A Δ5'1-6, Δ3' (structured_RNA) RNA: GGUUUAAUCCCUUUGAAAAUGGAUUUUUUUGUUUUAUAGGACAAUUAAAACCGUUUCAA", "values": [{"measurement": "Kd", "setting": "[1]; label: 5' 32P, 5' flank", "value": "27.6 ± 3.7", "unit": "nM"}]}
{"binder": "III: UU(17-18)GC, AA(205-206)GC (structured_RNA) RNA: GGUUUAAUAAUUGCGAAAAUGGAUUUUUUUGUUUUAUAGGACAAUUAAAACCGUUUCGC", "values": [{"measurement": "binding signal", "setting": "[3]", "value": "~4 fold Kd vs A Δ5'1-6,Δ3'"}]}
{"binder": "I: UUU(16-18)GGC, AA(205-206)GC (structured_RNA) RNA: GGUUUAAUAAUGGCGAAAAUGGAUUUUUUUGUUUUAUAGGACAAUUAAAACCGUUUCGC", "values": [{"measurement": "Kd", "setting": "[1]; label: 5' 32P, 5' flank", "value": "103 ± 12", "unit": "nM"}]}
{"binder": "ITS1 Subdomain A (1-38_184-212) (structured_RNA) RNA: GGAAGAAAUUUAAUAAUUUUGAAAAUGGAUUUUUUUGUUUUAUAGGACAAUUAAAACCGUUUCAAUACAAC", "values": [{"measurement": "Kd", "setting": "[1]; label: 5' 32P (EMSA), 5' and 3' single-stranded flanks", "value": "2.4 ± 0.3", "unit": "nM"}]}
{"binder": "V: U-G pairs at stem base (structured_RNA) RNA: UUUAAUAAUUUUGAAAAUGGAUUUUUUUGUUUUAUAGGACAAUUAAAACCGUUUCGG", "values": [{"measurement": "binding signal", "setting": "[4]", "value": "~3 fold Kd vs A Δ5'1-6,Δ3'"}]}
{"binder": "ITS1 Subdomain C (77-140) (structured_RNA) RNA: GGAGAGAUGGAGAGUCCAGCCGGGCCUGCGCUUAAGUGCGCGGUCUUGCUAGGCUUGUAAGUUUCU", "values": [{"measurement": "Kd", "setting": "[1]; label: 5' 32P", "value": "74.4 ± 4.1", "unit": "nM"}]}
{"binder": "nt 27-30 mutant, pairing kept (structured_RNA) RNA: GGUUUAAUAAUUUUGAAAAUGGGCGCUUUUGUUUUAUAGGACAAUUGCGCCCGUUUCAA", "values": [{"measurement": "binding result", "setting": "[1]; label: 5' 32P, 5' flank", "value": "binds"}]}
{"binder": "Subdomain A Δ3' (structured_RNA) RNA: GGAAGAAAUUUAAUAAUUUUGAAAAUGGAUUUUUUUGUUUUAUAGGACAAUUAAAACCGUUUCAA", "values": [{"measurement": "Kd", "setting": "[1]; label: 5' 32P, 5' flank", "value": "15.7 ± 2.6", "unit": "nM"}]}
{"binder": "Subdomain A Δ5'1-12, Δ3' (structured_RNA) RNA: GGAAUUUUGAAAAUGGAUUUUUUUGUUUUAUAGGACAAUUAAAACCGUUUCAA", "values": [{"measurement": "Kd", "setting": "[1]; label: 5' 32P, 5' flank", "value": "18.2 ± 1.9", "unit": "nM"}]}
{"binder": "GGUUUGAAAAUGGAUUUUUUUGUUUUAUAGGACAAUUAAAACCGUUUCAA (structured_RNA)", "note": "[Subdomain A Δ5'1-15, Δ3']", "values": [{"measurement": "Kd", "setting": "[1]; label: 5' 32P", "value": "346 ± 40", "unit": "nM"}]}
{"binder": "ITS1 Subdomain B (39-77_140-183) (structured_RNA) RNA: GGUGGCAAGAGCAUGAGAGCUUUUACUGGGCAAGAAGACAAUUUCUUGCUAUUCCAAACGGUGAGAGAUUUCUGUGCUUUUGUUA", "values": [{"measurement": "Kd", "setting": "[1]; label: 5' 32P", "value": "105 ± 2.9", "unit": "nM"}]}
